Experimental data as given in patent US20260201035A1 (published 2026).

Experiments:
Assay in all cases: fluorescence microscopy, LentiX cells co-expressing Lck (FIG. 38)
[1] = biological target: T1, GFP-tagged PD1, wildtype PD1 (Y223/Y248) (UniProt Q15116 25-288, tyrosine phosphorylation by co-expressed Lck (implied, not measured in this experiment))
T1 construct: whole, on cells; In LentiX cells co-expressing Lck; not shown: GFP tag

[2] = biological target: T2, GFP-tagged PD1, F223/Y248 PD1 (UniProt Q15116 25-288)
T2 construct: whole, on cells; In LentiX cells co-expressing Lck; not shown: GFP tag

[3] = biological target: T3, GFP-tagged PD1, Y223/F248 PD1 (UniProt Q15116 25-288)
T3 construct: whole, on cells; In LentiX cells co-expressing Lck; not shown: GFP tag

[4] = biological target: T4, GFP-tagged PD1, F223/F248 PD1 (UniProt Q15116 25-288)
T4 construct: whole, on cells; In LentiX cells co-expressing Lck; not shown: GFP tag

Measured: binding result

B1: mCherry-tagged Binder-NT7 (designed binder)
chain: ERFDSLTDLVEHYKKNPMVETLGTVLQLKQPLGGSGGGWFHGHLSGKEAEKLLTEKGKHGSFLVRESQSHPGDFVLSVRTGDDKGESNDGKSKVTHVMIRCQELKYDVGGGGGSQLQESGGGLVQAGGSLRLSCAASGYIFSRWYMGWYRQAPGKEREFVAGIDQGSITYYADSVKGRFTISRDNAKNTVYLQMNSLKPEDTAVYYCAAVAWAGYPWYYKHAYWGQGTQVTVSS
notes: Expressed in LentiX cells co-expressing Lck; not shown: mCherry tag
binds: all assays above
